Results from the nanobody polyreactivity screen of Harvey et al. (2022).

Test: yeast display, Sf9 membrane polyspecificity reagent, FACS + sequencing; frameworks hold sequencing errors
How it was run: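 After 36–48 hours of galactose induction, yeast (Saccharomyces cerevisiae BJ5465) displaying a synthetic nanobody library were stained at 4 °C for 1 hour with 10% biotinylated, detergent-solubilized Sf9 membrane reagent. Streptavidin microbeads enriched the stained cells before FACS sorting into low and high (top ~1%) gates on anti-HA and streptavidin fluorescence. Each clone's polyreactivity label reflects its gate of origin.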

Sequence	polyreactivity (PSR sort gate)
QVQLVESGGGLVQAGGSLRLSCAASGIIFASNGMGWSRQPPGKERELVAAISSGGSTNYADSVKGRFTISRDNAKNTVYLQMNSLKPEDTAVYYCAAVRWYREYDYWGQGTQVTVSS	low polyreactivity
QVQLVESGGGLVQAGGSLRLSCAASGSIFSAYAMGWYIQAPGKERELVAGITGSGGRTYYADSVKGRFTISRDNAKNTVYLQMNSLKPEDTAVYYCLARSYYNWYDYWGQGTQVTVSS	high polyreactivity
QVQHVESGGGLLQAGGSLRLSCAASGFTFNANAMGWYRQAPGKERELVAVITRSGGRTYYADSVKGRFTISRDNAKNTVYLQMNSLKPEDTAVYYCNAKGWTRPPCYDYWGQGTQVTVSS	high polyreactivity
QVQLVESGGGLVQAGGSLRLSCASSGRTFRRYARGWYRQAPGKERELVATIRSGDNTNYADSVKGRFTISRDNAKNTVYLQMNSLKPEDTAVYYCNRSPKSGQVTYLYSVNAHYDYWGQGTQVTVSS	low polyreactivity
QVQLVESGGGLVQAGGSLRLSCAASGFTCTRYAMGWYRQAPGKERELVATITGGGRTNYADSVKGRFTISRDNAKNTVYLQMNSLKPEDTADYYCNAKYRVYWGSGKFDYWGQGSQVTVSS	high polyreactivity
QVQLVESGGGLVQAGGSLRLSCAASGSTYRGYAMGWYRQAPGKEMELVAAISNRGTRTYYADSVKGRFTISRYNAKNTFYLQMNSLKPEDTAVYYFSAGNRVHRFDYWGQGTQVTVSS	high polyreactivity
QVQLVESGGGLVQAGGSLRLSCAASGLTFEKYAMGWYRQAPGKERELVAAISQDGGSTYYADSVKGRFTISRDNAKNTVYLQMNSLKPEDTAVYYCATGLGYFSRLDYWGQGTQVTVSS	low polyreactivity
KVQLVESGGGLVQAGGSLRLSCAASGLTFSFYAMGWYRQAPGKERELVAAITYSGDSTYYADSVKGRFTISRDNAKNTVYLQLNSLKPEDTAVYYCAAYVYQTPHSLHIYEYWGQGTQVTVSS	low polyreactivity
QVQLVESGGGLVQAGGSLRLSCAASGITFPHYAMGWYRQAPGKERELVAAISSSGGRTYYADSVKGRFTISRDNAKNTVYFQMNSLKPEDTAVYYCNKLRYPLLPPKYYYWGQGTQVTVSS	high polyreactivity
QVQLVESWGGLVQAGGILRLSCASYGFIFPIYAMGWYIQAPGKESELVALIRSGGSTYYADSVKGRFTISRDNAKNTVYLQMHSRKPEDTAVYYCKAKRYGMWGAAGRVGYDYWGQGTQVTVSS	high polyreactivity
QVQLVDSGGGLVQAGGSLRLSCAASGSTFPSNAMGWYRQAPGKERELVASIDRGGSTNNADSVKGRFTISRDNAKNTVYLQMNRLKPEDTAVYYCAAKRWPYWDISVYYWGYDYWGQGTQVTVSS	low polyreactivity
QDQLVESGGGLVQAGGRLRLTCAASGNTFSGNAMGWYRQAPGKERELVAAISGSGASTYYADSVKGRFTISRDNAKNTVYLQMNSLKPEDTAVYYCDADKPGIFSRFDYWGQGTQVTVSS	low polyreactivity
QVQHVESGGGLVQAGGSLRLSCAASGRIMARNAMGWYRQAPGKERELVADISYSGGRTYYADSVKGRFTISRDNSKNTVYFQMNRLKQEDTAVYYCADSRSSRTYHDDYWGQGTQVTVSS	high polyreactivity
QVQLLESGGGLVQAGGSLRLSCAASGRIFTPYAMGWYRQAPGKERELVAVIRDGSTYYADSVKGRFTISRDNAKNTVYLQMNSLKPEDTAVYYCAADVGYSPYFFGGTRYYKYDYWGQGTQVTVSS	low polyreactivity
QDQLVESGGGLFQAGGSLRLSCAASGRTFYTYAMGRYRPAPRKERELVAAITSGDGTYYADSVKGRFTISRDNAKNTVYLQMNSLKPEDTAVYYCADTRTYQLYRWAPRYYYWGQGTQVTVSS	high polyreactivity
QVQLVESGGGLVQAGGSLRLSCAASGSTFDTNAMGWYRQAPGKERELVASISSAGSTNYADSVKGRFTISRDNAKNTVYLQMNSLKPEDTAVYYCAKYYGQFYPPTLGYWGQGTQVTVSS	low polyreactivity
QVQLVESGGVLVQPGGSLRLSCAASGSTFQSYTMGWYRQAPGKERELVAAISSSGGRTYYADSVKGRFTISRDNEKNTVYLQMNRLKPEDTAVYYCAAVTKSWRGATWYDYWGQGTHVTVSS	high polyreactivity
QVQLVESGGGLVQAGGSLRLSCAASGSIFPWNAMGWYRQAPGKERELVAGINESGGSTYYADSVKGRFTISRDNAKNTVYLQMNSLKPEDTAVYYCAADGYPSVGDDYWGQGTQVTVSS	low polyreactivity
QDQLVESGGGLVQAGGSLRLSCAASGNIFPSYVMGWYRQAPGKERELVAAITWKGGSTYYADSVKGRFTISRDNAKNTVYLQMNSLKPEDTAVYYCNAVGNLYSRDDYWGQGTQVTVSS	low polyreactivity
QVQLVESGGGLVQAGGSLRLSCAASGLIFYRYAMGWYRQAPGKERELVAVISWIGCNTYYADSVKGRFTISRDNAKNTVYLQMNSLKPEDTAVYYCAVATGPVSYRRYYWGQGTQVTVSS	high polyreactivity
QVQLEESGGVLVQAGGSLRLSCAASGRTFGHYAMGWYRPAPGKERELVAAITRDDGTNYADSVKGRFTISGDNAKNTVYLQMNRLKPEDTAVYYCNADVWLRRVYDYWGQGTQVTVSS	low polyreactivity
QVQLVESGGGLVQAGGSLRLSCAASGSIFRYYAMGWYRQAPGKERELVAAINSRGGTTYYADSVKGRFTISRDNAKNTVYLQMNSLKPEDTAVYYCAAGYPPLHTSVQQTAHYGLDYWGQGTQVTVSS	high polyreactivity

Sequence	polyreactivity (PSR sort gate)
QVQLVESGGRLVQAGGSLRLSWAASGRILWSNRMGWYRQAPGKERELVAAITYSGDTTYYADSVKGRFTISRDNEKNTVYLQMNSLKPDDTAVYYCAVEDAGQGGDYWGQGSQVTVSS	low polyreactivity
QVQLVESGGGLVQAGGSLRLSCAASGFTFHNYAMGWYRQAPGKERELVAAISASGSSTYYADSVKGRFTISRDNAKNTVYLQMNSLKPEDTAVYYCAAVGRYSPYGYWGQGTQVTVSS	high polyreactivity
QVQLVESGGGLVQAGGSLRLSCAASGITYGTYAMGWYRQAPGKERELVARITGSGGRTYYADSVKGRFTISRDNAKNTVYLQMISLKPEDTAVYYCAAETWRRYLFGYWGQGTQVTVSS	high polyreactivity
QVQLVESGGGLVQAGGSLRLSCAASGYIFKYYAMGWYRQAPGKERELVAAISRSGDSTYYADSVKGRFTISRDNAKNTVYLQMNSLKPEATAVYYCKARYWHGPTGSDYWGQGTQVTVSS	high polyreactivity
QVQLVESGGGLVQAGGSLRLSCAASGSIFIYNVMGWYRQAPGKERELVATIRGSGGSTYYADSVKGRFTISRDNAKNTVYLQMNSLKPEDTAVYYCARRDYPYQWGRAYNYWGQGTQVTVSS	high polyreactivity
QVQLVESGGGLVQAGGSLRLSCAASGRIFGHYAMGWYRQAPGKERELVAAISRSGTRTYYADSVKGRFTISRDNAKNTVYLQMNSLKPEDTAVYYCAAYTYKGIYYYWGQGTQVTVSS	high polyreactivity
QVQLVESGGGLVQAGGSLRLSCAASGNIFILNAMGWYRQAPGKERELVAAISTTGGSTYYADSVKGRFTISRDNAKNTVYLQMNSLKPEDTAVYYCAAYTYRYSTFYYWGQGTQVTVSS	high polyreactivity
QVQLVESGGGLVQAGGSLRLSCAASGSIFNKNAMGWYRQAPGKERELVAAITSSGSSTYYADSVKGRFTISRDNAKNTVYLQMNSLKPEDTAVYYCNAQYGIRPRAGRTRQKYDYWGQGTQVTVSS	high polyreactivity
QVQLVESGGGLVQAGGSLRLSCAASGITLAGYVMGWYRQAPGKERELVADISSSGDSTYYADSVKGRFTISRDNAKNTVYLQMNSLKPEDTAVYYCADEEIIPLIYKGYPFDYWGQGTQVTVSS	low polyreactivity
QVQLVESGGGLVQAGGSLRLSCSASGSIFSHYVMGWYRQAPGKERELVAAISPSGDSTYYADSVKGRFTISRDNAKNTVYLQMNSLKPEDTAVYYCNAGFGQYRYRGHDDYWGQGTQVTVSS	high polyreactivity
QVQLVESGGGLVQAGGSLRLSCAASGYIFGYVMGWYRQAPGKERELVAAITYSSGNTYYADSVKGRFTISRDNAKNTVYLQMNSLKPEDTAVYYCAKQAYYKGRLAYGYWGQGTQVTVSS	high polyreactivity
QVQLVESGGGLVQAGGSLRLSCAASGSTLVGNTMGWYRQSPGKERELVAAITGVGSTNYADSVKGRFTISRDNAKNTVYLQMNSLKPEDTAVYYCAAQYSYTYIVSYLYDMDYWGQGTQVTVSS	low polyreactivity
QVQLVESGGGLVQAGGSLRLSCAASGLTFYYYVMGWYRQAPGKERELVAAISSSGGNTYYADSVKGRFTISRDNAKNTVYLQMNSLKPEDTAVYYCAAGQKRTLDNYWGQGTQVTVSS	high polyreactivity
QVQLVESGGGLVQAGGSHRFSCAASGFTVWEYAMGLYRQAPGKERELVAAISRGTSTYYADSVKGRFTISRDNAKNTVYLQMNSLKPEDTAVYYCAAAPSYYPARHGYWGQGSQVTVSS	low polyreactivity
QVQLVESGGGLDQAGGSLRLSCAASGLIFRRYAMGWYRQAPGKERELVAAISRSGGSTYYADSVKGRFTISRDNAKNTVYLQMNSLKPEDTAVYYCAARTRSDNSYHGGEYWGQGTQVTVSS	high polyreactivity
QVQLVESGGGLVQAGGSLRLSCAASGSTFPYNAMGWYRQAPGKERELVAVITTVGSTYYADSVKGRFTISRDNAKNTVYLQMNSLKPEDTAVYYCAAANTQSPGYDYWGQGTQVTVSS	low polyreactivity
QVQLVESGGGLVQAGGSLRLSCAASGFTFTEYAMGWYRQAPGKERELVADITWSGGITYYADSVKGRFTISRDNAKNTVYLQMNSLKPEDTAVYYCNADYIYSYFYIRYDYWGQGTQVTVSS	low polyreactivity
QVQLVESGGGLVKEGGSLRLSCAASGSIFLQYAMGWYRQAPGKERELVAGISLRGCSTYYADSVKGRFTISRHNAKNTVYLQLNSLKPEDTAVYYCAADVIVTVETYTSGPSFTEYDYWGQGTQVTVSS	low polyreactivity
QVQLVESGGGLVQAAGSLRLSCAASGITFRWYAMGWYRQAPGKERELVAAITYRGGSTHYEDSVKGRFTISRDNAKTSVYLQMNSLKPEDTAVYYCAVRRWPRYRWSDYWGKGTQVTVSS	low polyreactivity
QVQHVESGGCLFQAGGILRLSCAASGIIFTYYDMGWYRQAPGKERELVAGIDYSGTSTYYADSVKGRFTISRDNAKNTVYLQMNSLKPEDTAVYYCAAVPVWVVYFSGEYYYWGQGTQVTVSS	high polyreactivity
QDQLVESGGGVVQAGGSLRLSCAASGRIVGSKASGVSIEAPRKESEFVAAISSCSRTYYADSVKGLFSISRDNAKNTVYLQMNSLKPEDTAVYYCAKRGYFYSHRHGYEYGGQGTQVTVSS	high polyreactivity
